From publication PMC1636449 (Nucleic Acids Research, 2006)

How the values were obtained:
[1] = biological target: T1, Bacillus stearothermophilus DnaB helicase (Bacillus stearothermophilus, UniProt Q9X4C9 1-454); test: SPR
T1 sequence: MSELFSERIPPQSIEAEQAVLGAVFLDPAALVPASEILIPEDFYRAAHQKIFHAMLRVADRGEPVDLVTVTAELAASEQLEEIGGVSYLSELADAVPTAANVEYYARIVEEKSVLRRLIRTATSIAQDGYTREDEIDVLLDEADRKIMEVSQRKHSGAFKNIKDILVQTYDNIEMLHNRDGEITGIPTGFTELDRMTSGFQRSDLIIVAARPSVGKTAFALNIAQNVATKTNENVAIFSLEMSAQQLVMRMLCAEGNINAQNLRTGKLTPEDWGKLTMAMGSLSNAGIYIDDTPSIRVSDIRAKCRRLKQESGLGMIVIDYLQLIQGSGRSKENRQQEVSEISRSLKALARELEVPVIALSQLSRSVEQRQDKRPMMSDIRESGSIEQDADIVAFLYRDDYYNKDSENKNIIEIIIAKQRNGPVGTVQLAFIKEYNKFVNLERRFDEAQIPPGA

[2] = biological target: T1, Bacillus stearothermophilus DnaB …; test: SEC

B1: Bacillus subtilis DnaI (wild type) (natural protein)
chain: MEPIGRSLQGVTGRPDFQKRLEQMKEKVMKDQDVQAFLKENEEVIDQKMIEKSLNKLYEYIEQSKNCSYCSEDENCNNLLEGYHPKLVVNGRSIDIEYYECPVKRKLDQQKKQQSLMKSMYIQQDLLGATFQQVDISDPSRLAMFQHVTDFLKSYNETGKGKGLYLYGKFGVGKTFMLAAIANELAEKEYSSMIVYVPEFVRELKNSLQDQTLEEKLNMVKTTPVLMLDDIGAESMTSWVRDEVIGTVLQHRMSQQLPTFFSSNFSPDELKHHFTYSQRGEKEEVKAARLMERILYLAAPIRLDGENRRHP
[1]
  stoichiometry N: 1 DnaI per stearoDnaB subunit

B2: B. subtilis DnaI C101A mutant (natural protein)
chain: MEPIGRSLQGVTGRPDFQKRLEQMKEKVMKDQDVQAFLKENEEVIDQKMIEKSLNKLYEYIEQSKNCSYCSEDENCNNLLEGYHPKLVVNGRSIDIEYYEAPVKRKLDQQKKQQSLMKSMYIQQDLLGATFQQVDISDPSRLAMFQHVTDFLKSYNETGKGKGLYLYGKFGVGKTFMLAAIANELAEKEYSSMIVYVPEFVRELKNSLQDQTLEEKLNMVKTTPVLMLDDIGAESMTSWVRDEVIGTVLQHRMSQQLPTFFSSNFSPDELKHHFTYSQRGEKEEVKAARLMERILYLAAPIRLDGENRRHP
[2]
  binding result: binds
